Laboratory results published in patent publication US20250319129A1.
Where two headings read alike, the source gives them in different places.

B1: 21009 chimeric antigen receptor (on CAR-T cells) (protein, part only; not given: hinge, transmembrane and signalling parts, part only)
chain, part: EVQVVESGGGLVQPGGSLRLSCAASGNIFRTDIGMWYRQAPGKGRELVAGTTTGRSGYVDKASIGRFTISRDNAKNTMYLQMNSLRAEDTAVYYCNAYGVWEQTPFDALRWGQGTLVTVSS
B2: 21011 chimeric antigen receptor (on CAR-T cells) (protein, part only; not given: hinge, transmembrane and signalling parts, part only)
chain, part: EVQLVESGGGLVQPGGSLRLSCAASGSIFSVNGIMWYRQAPGKQRELVAARYTGSVIDSGKTGTGRFTISRDNAKNTLYLQMNSLRAEDTAVYYCNAPTAALTRVEWDVYSLWGQGTLVTVSS
B3: 21050 chimeric antigen receptor (on CAR-T cells) (protein, part only; not given: hinge, transmembrane and signalling parts, part only)
chain, part: QVQLQQPGAELVRPGASVKLSCKASGYTFTSYWINWVKQRPGQGLEWIGNIYPSDSYTNYNQKFKDKATLTVDKSSSTAYMQLSSPTSEDSAVYYCTRSWRGNSFDYWGQGTTLTVSSGGGGSGGGGSGGGGSDIVMTQSPSSLTVTAGEKVTMSCKSSQSLLNSGNQKNYLTWYQQKPGQPPKLLIYWASTRESGVPDRFTGSGSGTDFTLTISSVQAEDLAVYYCQNDYSYPFTFGSGTKLEIK
B4: 21047 chimeric antigen receptor (on CAR-T cells) (protein)
chain: QVQLVESGGGLVQPGGSLRLSCAASGSIFNIPVMGWYRQAPGKQRELVAGISTGGTTNYGDSVKGRFTISRDNAKNTVYLQMNSLKPEDTAVYYCNVLVVSGIGSTLEVWGQGTLVTVSSIEVMYPPPYLDNEKSNGTIIHVKGKHLCPSPLFPGPSKPFWVLVVVGGVLACYSLLVTVAFIIFWVRSKRSRLLHSDYMNMTPRRPGPTRKHYQPYAPPRDFAAYRSRVKFSRSADAPAYQQGQNQLYNELNLGRREEYDVLDKRRGRDPEMGGKPRRKNPQEGLYNELQKDKMAEAYSEIGMKGERRRGKGHDGLYQGLSTATKDTYDALHMQALPPR

How the values were obtained:
Experiment in all cases: cell-based or functional assay
CLDN18.1 (human) = CLDN18.1 (human) (UniProt P56856)
CLDN18.2 (human), P56856 [1] = target: CLDN18.2 (human), P56856
CLDN18.2 (human), P56856 [2] = target: CLDN18.2 (human), P56856; remark: listed apart in the source

Binder | cytokine secretion (IFN-γ) (CLDN18.1 (human)) | IFN-γ secretion levels (CLDN18.2 (human), P56856 [1]) | IFN-γ secretion levels (CLDN18.2 (human), P56856 [2])
B1 | < 100 µg/mL |  | 
B2 | < 100 µg/mL |  | 
B3 | < 100 µg/mL |  | 
B4 |  | > 5000 pg/mL | > 10000 pg/mL
